From patent publication US20250034222A1, “IL-38 VARIANTS” (Monash University, priority 2021, published 2025)
Where a chain is given by its changes, count along the chain named. In names and notes the source's numbering stands. Entries after “also recorded” stand apart in the source; their conditions may differ.

B1: ΔT53: Locked homodimer IL-38 variant, T53 deleted (protein, UniProt Q8WWZ1 1-152, looked up, variant T53*)
Interleukin-1 family member 10: MCSLPMARYYIIKYADQKALYTRDGQLLVGDPVADNCCAEKICILPNRGLARKVPIFLGIQGGSRCLACVETEEGPSLQLEDVNIEELYKGGEEATRFTFFQSSSGSAFRLEAAAWPGWFLCGPAEPQQPVQLTKESEPSARTKFYFEQSW
B2: IL-38 (A51D): Variant of IL-38 that forms monomer; SNP rs6743376, mutation at residue 51 (A51D), residues 3-152 (protein)
chain: SLPMARYYIIKYADQKALYTRDGQLLVGDPVADNCCAEKICILPNRGLDRTKVPIFLGIQGGSRCLACVETEEGPSLQLEDVNIEELYKGGEEATRFTFFQSSSGSAFRLEAAAWPGWFLCGPAEPQQPVQLTKESEPSARTKFYFEQSW
B3: WT IL-38: Wild-type IL-38, residues 3-152, alanine at position 51 (called D51A) (protein)
chain: B2 chain with D49A
B4: V55Q: Variant of IL-38 V55Q with increased capacity to form monomer, residues 3-152 (protein)
chain: B2 chain with D49A, V53Q
B5: T53N: Variant of IL-38 T53N with increased capacity to form monomer, residues 3-152 (protein)
chain: B2 chain with D49A, T51N
B6: V55T: Variant of IL-38 V55T with increased capacity to form monomer, residues 3-152 (protein)
chain: B2 chain with D49A, V53T

Tests used:
IRF3/7 = experiment: Poly (I:C)-induced IRF3/7 Quanti-Luc in A549-Dual reporter cells; assay type: cell-based, Human; settings: 1 ng/ml Poly (I:C) LMW, 100 nM/l to 100 fM/l variant, 20 h, dexamethasone 5 nM benchmark
Protocol: FIG. 17: IL-38-Fc reduces Poly (I:C)-induced IRF3/7 Quanti-Luc in Human NF-kB-SEAP & IRFLuc Reporter A549-Dual cells from Invivogen (lung epithelial cells). A549-Dual cells were pretreated for 1 h with lipofectamine and (1 ng/ml) Poly (I:C) low molecular weight (LMW) and then stimulated dose dependently (A) 100 nM/l, (B) 1 nM/l, (C) 10 pM/l, (D) 100 fM/l with different IL-38 variants or dexamethasone (5 nM) as benchmark for 20 h. […]
6 μl of A549 Dual cell supernatants or plain stimulation media (background control) and 15 μl of QUANTI-Luc™ solution (InvivoGen) were added to a 384-well plate (Opti-plate-384, PerkinElmer, #6007290) and immediately measured as per manufacturer's instructions. After background subtraction, the %-change in luciferase activity of IL-38 variants (1 nm/l)+Poly (I:C) treated conditions over poly (I:C)+vehicle-treated cells were calculated ([…] of cells treated with poly (I:C)+vehicle=100%).

[1] = SEC analysis of monomer:dimer proportion of IL-38 variants upon purification; assay type: physicochemical; settings: for capacity to form a homodimer / monomer: SEC upon purification, FIG. 11
Protocol: Recombinant IL-38 variants were expressed in BL21-CodonPlus(DE3)-RIL cells (Stratagene) by 0.5 mM IPTG induction (OD600 0.8) overnight at 18° C. Cells expressing IL-38 variants were lysed by sonication in 50 mM Tris-HCl (pH 8.0), 500 mM NaCl, 3 mM β-mercaptoethanol, and 30 mM imidazole. Cells were clarified by centrifugation, filtered through a 0.8 μm membrane, and bound to Ni-NTA resin (Qiagen) for 1 hour at 4° C. on a rotating platform. The resin was washed with 300 ml of 50 mM Tris-HCl (pH 8.0), 500 mM NaCl, 3 mM β-mercaptoethanol, and 30 mM imidazole. The protein was eluted from the Ni-NTA resin (Qiagen) in a buffer containing 50 mM Tris-HCl (pH 8.0), 500 mM NaCl, 3 mM β-mercaptoethanol, and 400 mM imidazole. Protein was further purified on a Superdex 75 Increase 10/300 GL column (Cytiva Life Sciences) in 10 mM HEPES (pH 7.2), 150 mM NaCl, and 2 mM DTT.
The number and elution volume of the elution peaks are indicative of whether the size of the recombinant protein corresponds to monomeric or dimeric IL-38 conformations or both conformations. The proportion of monomer: dimer for each mutant (FIGS. 9 and 11) were calculated by comparing the area under the monomer and dimer peaks from three individual purifications.

[2] = Analytical SEC of IL-38 variants upon extended incubation; assay type: physicochemical; settings: 0.165 mg/ml, 37° C., 16 hours, Sorensen's phosphate buffer pH 7.0, 5% glycerol
Protocol: To examine the monomer-dimer equilibrium upon extended incubation, indicated IL-38 variants (residues 3-152, C-terminal His6 tag) were incubated at 0.165 mg/ml and 37° C. for 16 hours in Sorensen's phosphate buffer (0.13 M, pH 7.0) with 5% (v/v) glycerol. The monomer: dimer proportion was examined by analytical SEC on a Superdex 75 Increase 10/300 GL column (Cytiva Life Sciences).

[3] = SEC, area under monomer and dimer peaks

| Molecule | reduction in poly (I:C)-induced IRF3/7 (Quanti-Luc) (IRF3/7) | capacity to form a homodimer / monomer [1] | monomer-dimer equilibrium upon extended incubation [2] | dimer formed upon purification [1, 3] [%] | monomer upon purification [1, 3] [%] |
| --- | --- | --- | --- | --- | --- |
| B1 | only marginal reduction | stable locked dimer | stable as a dimer | – | – |
| B2 | – | reduced capacity to form a homodimer | more stable monomer; also recorded: stable monomer | – | – |
| B3 | slightly less potent than A51D (non-fused) IL-38 | – | slow equilibrium between the two states | ~20 | ~80 |
| B4 | – | reduced capacity to form a homodimer | – | – | – |
| B5 | – | reduced capacity to form a homodimer | – | – | – |
| B6 | – | reduced capacity to form a homodimer | – | – | – |
